Measurements from the domain aggregation screens of Martell et al. (2025).

Test: soluble fraction after stress (log2 fold change); higher = more stays soluble; pooled small domains, quantitative proteomics
Conditions: stress: pH 4
Outline: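 Pooled custom libraries of small protein domains were subjected to pH 4 and measured by high-throughput quantitative proteomics. The log2 fold change in soluble amount per domain is reported, higher values meaning more remained soluble. This is used as a measure of aggregation propensity.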

Sequence	soluble fraction (log2)
HMSHSDMEEWTDAVRSRRKKLGLTQVQIARRLGVTSHHFSQIESGRTIPSASLQIEIDRLLKNWND	0.0462
HMSHSVLIDISQLRIGMYIQLDVGWMHHPFPVSSFRVASLEQIEALRTLNLAQVRYFPAKSDPV	-1.11
HMSIAEMSGARKSAILLLALDEDSAAEIFKYLSAGEVQEISMEMAKLNQVSHDDMKAVLEAFHKETEEFV	-1.02
HMSIAKIIGDRIRAYRNQKGWSQEYLAEKADVHHTYIGQLERGEKNATIESISKIAGALGVSLSRLFEN	0.192
HMSIEHVPGYTTLSKREQEIVHALLTRKTPEELADDLSISINTLNKHISHIYHKLGIRGRMQLFDYA	-0.0894
HMSIEIKTIDVKHADLFQLQDILRNLYPELNIVPDQRNNKLILQGKRELLVEAERLTLQLDTE	-1.29
HMSIESPEEFNAKFPPGSEIYATNIQKNAIVQSPANAKGDVEILANSMRLTINFRFISKRDT	0.334
HMSIGPQMAGRRVLSGDLIARLEAFEGTVVLGRGVAREDALLIATQAGHVRWEPASRRLWVDSTA	-0.0304
HMSIHPRDKADLGTALSKWKKGALDDKQLELEVARVFMRTYGKKLEGQALNKAVAAWVAALTQSKK	≥ 0.43
HMSINIDEEKKILGPNADQIIKGITTWGQGLVSKGIWSDADFEEFKIFAATGNGINALNKVRKYY	-0.65
HMSIQMPDLSITPVTDAKKKIESLQLQYKEVGEYNDSVIAGYVIRTEPASGSYLNEDEEVIIYVSKG	-0.525
HMSISEFNYTEFNGLVEKGQVSEVTISGREIEGRLTSGESFKTYSPETDNSALVGDLLKNNVKINGKP	-0.158
HMSITKDNLSIGTNIRISGFSDIGRIISIPNKGNQVQVQIGSAKMNIKINSIVEIIKEEKDFNKNISN	0.189
HMSIYMNIYNEFKKYIIANVYKYDDKLPSVRSIALEYGINPNTVQRAFQLLEDEGYIKTISKKGVYVNYR	0.112
HMSKAYLSVESNISGARVFVDGQKEGTTPLSDVLLSAGEHLILVKKQGYETYQKRVRFQKGRSMSLYVDLS	-0.0554
HMSKDQKKFFIEIVSIRGFGSQIGISILNKLSIPQIINAIKTQNKKEISSIPGIGQKMTERLILELNNKFK	-0.691
HMSKININTITESELKELPISTVKQKAIQDYLIDRGFISNIYDLLDIKEITSDDVSLLKKVVNVKLPY	-0.796
HMSKIVPVAYSQFLKDVKNGNVSQVEIRGNNIKGINNNGSSFSTYAPNDLSLIDKLEKSNVEIIVMPLE	-0.232
HMSKKLLVLQTSDDAKAKDVLSQNGYQLDDGDKLSIIETEQTKMADVIKLLSDNAIDIEDVQHVH	-0.116
HMSKLQETEIPVALEVEKIPGLSNELKQKLLKIKPQTIGQASRISGITPAAISILMIYIKKNESISAVK	-0.399
HMSKLQKTKYAGVYFTEDTQTRVKTYVARIVLAGIIDTEVVVGHSNDQHRTNAAIAYQRRLELIQEAKN	-0.372
HMSKLSLREIVKKFEEQIIQLHKRGLNHSEISREIVTKNSIDLGDSHIDSLRRAISVHLQTP	-0.201
HMSKPIREVAYETLKNAIVTGEIPAGSRIVETEYAERMHISRTPLREALRKLERDGLVEYVVRRGVVVRAF	-0.303

Sequence	soluble fraction (log2)
HMSKPTLTLKSNAYPYNLNGERINNYLGFTYIKKGATLNYQGSKRINGQNYYYIGDGAYIKNTTVGSTNN	≥ 0.43
HMSKQDRRIRRTRRLLKESLIQLMQEKEFMNISVREVTERADLNRGTFYLHYQDTRHLLQDIENETL	-1.86
HMSKQEFVDRLRVSLSGKISPASVEDNARYYEDYINTHIRLGEPEEDVLEGLGDPRLIARSIVAAESV	-0.0405
HMSKQLGFKIKTARRKLNISQGDLSKKLEISPSYLNLIESGKRKVSTDLLMKASEILNLDLKKL	≥ 0.43
HMSKQQFLDELAARLREEGAELLVAENLNFYRSYIEEEVAKGRSEEEVLAELGNPALIARSILDAAGF	-1.15
HMSKSIELMNEIKKYIEEYYLQYRQSPSTTKIAEAVGIARGTAYKYLVEMSERNMIEYDGQEISTEVTRKY	-0.381
HMSKSKSEIDKDPHFWSSLFQRIGEGESLRKIAKDSKIPKSTLWAWIRNDPQLALRYSEAQQ	0.00982
HMSLAATLSPREIDTVRLIAVGSSNKEIARQLGIAETTVKIHVQHILRKLNLTSRVQVAVFANAEGII	-0.407
HMSLAISGRNQLHGIIEEVRSDGLLSQIYLRVGDQVLTAVITRDAVAELKLKRGDTAVAIMKSTEVMIARE	0.0191
HMSLDLERAVALLSLPRPVGNHPEDGELVEAGIGRYGPYVKHGSKYANLPDADEVFTIGMNRAVEVLAAK	-0.261
HMSLDTASDKELLGLIVSEPIATRVLDAFRTLDATLFRTTPAELAAAAGVSSEHAQKIKAVAEIAARMLKP	-0.363
HMSLEDYVIIKNKTVKVYETEFDGAPVVTSSSVGQKLILVEYNDNFAKILYRAKDGLDYVGYIKRKDVYVR	-1.04
HMSLLLTPREASVWASEYLGKKVTSNNIIYLLNYGKIANHSTDLKENLIDKNELKIYYDSTIKSQKH	0.00309
HMSLLQDRQRHEALAALGYYRGSVSAAWGAASVEALKAAQAALGVEVDGKWGPKTEDVIQAALGT	-0.453
HMSLLQTRQRHEALAALGFFKGDVAAEWSAASTEALRAAQASLGIRVDGKWGPQTEDAIGKALAERQG	0.108
HMSLLTIDELSQATGVSVRTLRYYVSSGVLDKPTGETRNARYGTHHLDQVRNIKKLQEEGLTLNRILEIKK	-0.405
HMSLNHDIWVQELKEKRSGYGISQSRLAIAAGMTRQYLSDIETGKVLPSAERKAAITEALERFNPD	-0.213
HMSLNNAHNTIFPRIIELMEMKQLENVLLIGGGIIPRKDIESLESSGVTKLYGPGTPVKETIEFITNWVK	-0.533
HMSLPKVLVPTDITVSQLAKYLEVDAIAIVKKLFGLGVVASLNQRLENEQMQLLGQEFGKDIIFTEN	-0.318
HMSLPTSDWKRALSLFDEALSLPPDARDAWLAHTIAREPAVSPLLQKLLGAHRRVETNDILATLPR	-0.274
HMSLQNTMANFAGGVLVLFLKPFKAGDYIVTKDGEGTVASIGLVYTTLLTIENKRIVIPNSSISNSPITN	-0.673
HMSLRGEKTYDEAHQKLIKSAVELFKNPLVSPEKITVSQIAKHAGVSVATAYNHFPENKLDIYGSIF	-0.0613
HMSLRVIEIFGTPQQMSARISLMDGSVTDVKVGQSIPGTSYKVASITGNGVWIQNGTAVSYTHL	0.00817

Sequence	soluble fraction (log2)
HMSLSDADVERLLEVAIDIESLEEREGLYYQANESEPYSGWGKLMYDSGQVERLVPYKDGRWEGLWTIW	-1.18
HMSLSISSLVFFRKNAGLTQADIATAMSITQSAVARLEKRLLSDSDVTLKTLERYAEAVGIRMHVDFEP	-0.0175
HMSLSKEEFETISKQVLELAGAGPIPVKELLQKMERTSKEKAWKVIEFLQAEDKIVPDATGRIQL	-0.457
HMSLSKQETEFLTTFSASGKRVFTYQQATDYWQSKVAATNVLGRLVRKGWLQRLERGLYMIIPLEAGPERF	-0.807
HMSLSPAATRSRGYPSVLLTMKAPERLVSAAGPDRRAYLVGTDPLVIELPGVKGLYKVDPDQIVFE	-0.0637
HMSLTEEQVDSGLKEIRLALLEADVALPVVKNFITNIKPKAIGQEIIRSTSPGQMIVKIVYDELVSIL	-0.85
HMSLTEESAKSLIGLTENEAVKVAAERGWTVRVAMRDGEAFMLTQDYSENRVNLTVMKTLVTAVTI	-0.0567
HMSLTMPKLIGMHLFQAERTLNYYGFQYKVEGPDSASVVIDQYPKEGVTVDPHYPITLKIGPSA	0.206
HMSLYGGYEIDIIKEEVVDAGIKLLRRRVIVADQRGISVYEGKPTFASDDQVLIKEGQYQIDKLG	-1.46
HMSMHVHTPNPDFKPSNTNALQEGQLVEHPKFGFGKVQKIETEGLNKKASIQFEHFGEKTLLLSFAKLRII	-0.167
HMSMLGTEQRVLVLGPARKGEGFLMARTDNNRIVNFEGPLSLVDTMVRVKVTDVYPHSLGGQLL	-0.0321
HMSMPDERMLTSWMMARVKAAGKTMTRDAWNEFFERSNDSMDHMDMEMEKLLSYVYDKDGITLEDVEA	-0.381
HMSMQIILLDKVVNLGGLGDVVKVKDGYARNYLIPQGKAKRANTANLAEFEARRVELERLAAEQLAQAQA	-0.478
HMSMRIDTNTLNYYVQNAQISLSVLRTKINNLDQFLSGEKQPTFNQLSEIAKKINVPTGLLLLNKS	-0.698
HMSMSKISNLLEIMMIIQYKGLTTASELAQSLGVDKKTVYRYINSLSKANIPIYTKKGRYGGFYIDKNF	0.138
HMSMSTVGERIKKKRKNLNFTQQELAAKLNISAQAVSKWENGVALPDLGLMPKLAQVLESTVDGLLGYQGA	-0.235
HMSMTLSVLDDVRGLSESRRKQLFHSFGSIKKLREQSKETLMSIPYLPEKVALELYDKLHEE	0.272
HMSMVGSVNKQGRPFALLRVDNLLYQVKVGDYLGQNYGRITQIDETQIALREIVQDAAGEWIERPGVLQL	-0.256
HMSNATELVYDDGRKLLISYETLVGGYHPDLGWIRTAKTYSISTDKHIRNYFNNVTNPRVVGEDILETLKI	-0.237
HMSNDRSYLARLQDYYAEHRALPSYASIGALLGLRSKSSVAALVARLKLAGFVESTPDRRLAPTRRFF	0.344
HMSNEWIEISAKTVDDAINEGLIRLGTTTDKMDVEVLEKESAGFLGFIGKHDAKIRVRFKEV	-0.608
HMSNGYVTAKTTVNVRKSASESGERLGVIYQGDKLELVMNQADGWTKVKYKGQTAYVKSEFM	0.161
HMSNHYETLGVPRDASQEDIKRAYRRLARKLHPDVAGPGKAEEFKAVNEAYAVLSDEESRRMYDLGGDDAL	0.145
